Data: article PMC10249358 (2023)
Where two headings read alike, the source gives them in different places. No end group written: not given here. *: point of attachment. FITC = O=C1OC2(c3ccc(O)cc3Oc3cc(O)ccc32)c2ccc(NC(=S)*)cc21

T1: merlin FERM domain (human, UniProt P35240 22-312)
T1 chain: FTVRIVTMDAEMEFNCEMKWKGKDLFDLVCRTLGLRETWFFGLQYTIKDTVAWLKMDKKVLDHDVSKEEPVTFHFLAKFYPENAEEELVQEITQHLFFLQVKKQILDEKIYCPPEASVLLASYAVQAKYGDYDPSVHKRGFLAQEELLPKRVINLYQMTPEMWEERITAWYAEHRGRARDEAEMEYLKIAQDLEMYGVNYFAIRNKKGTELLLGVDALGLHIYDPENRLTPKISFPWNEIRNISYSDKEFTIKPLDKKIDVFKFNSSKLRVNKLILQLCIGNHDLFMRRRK

T2: radixin FERM domain (as used in FP) (human, UniProt P35241 5-295)
T2 chain: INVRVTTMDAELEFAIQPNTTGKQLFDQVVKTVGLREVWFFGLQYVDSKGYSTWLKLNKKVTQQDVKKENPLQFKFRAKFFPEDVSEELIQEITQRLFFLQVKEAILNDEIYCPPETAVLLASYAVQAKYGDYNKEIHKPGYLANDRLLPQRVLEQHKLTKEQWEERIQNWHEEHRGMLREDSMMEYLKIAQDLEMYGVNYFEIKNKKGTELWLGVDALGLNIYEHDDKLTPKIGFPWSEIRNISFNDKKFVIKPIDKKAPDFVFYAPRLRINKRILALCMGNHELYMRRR


Legend:
Assay in all cases: FP
moesin FERM domain [1] = biological target: T3, moesin FERM domain (UniProt P26038 2-295)
moesin FERM domain [2] = biological target: T3, moesin FERM domain; remark: listed apart in the source
[3] = biological target: ezrin FERM domain (as used in FP) (UniProt P15311 2-296)
Sequence of ezrin FERM domain (as used in FP) (P15311 2-296): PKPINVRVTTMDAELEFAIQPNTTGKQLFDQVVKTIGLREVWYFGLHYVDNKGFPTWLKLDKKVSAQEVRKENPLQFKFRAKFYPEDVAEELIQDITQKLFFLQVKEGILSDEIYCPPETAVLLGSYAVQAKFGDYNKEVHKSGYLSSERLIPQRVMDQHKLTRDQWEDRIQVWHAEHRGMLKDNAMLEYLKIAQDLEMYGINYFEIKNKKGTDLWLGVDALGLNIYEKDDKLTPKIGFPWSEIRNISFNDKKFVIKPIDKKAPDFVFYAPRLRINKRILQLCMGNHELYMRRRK

merlin FERM domain = biological target: T1, merlin FERM domain
[4] = biological target: T2, radixin FERM domain (as used in FP)
moesin FERM domain [5] = biological target: T3, moesin FERM domain; remark: listed apart in the source

Binder	Kd (moesin FERM domain [1]) [nM]	Kd (moesin FERM domain [2]) [nM]	Kd [3] [nM]	Kd (merlin FERM domain) [nM]	Kd [4] [nM]	Kd (moesin FERM domain [5]) [nM]
PYTSYSVQTMETVPYQPFP [TBX4 peptide extended N-terminally with PYT]	3200	–	–	–	–	–
{FITC}-WSKKNELFSNL [FITC-EBP50(348–358) peptide]	–	3000	3200	1800	3200	–
{FITC}-LEFADFYDFRSSYPDH [FITC-ZNF622(341–356) peptide]	–	1000	1600	4100	2500	–
LEFADFYDFRSSYPDH [ZNF622(341–356) peptide, unlabeled]	–	–	–	–	–	1400
SYSVQTMETVPYQPFP (also: FITC label, position not given here) [FITC-TBX4(428–443) peptide]	–	750	4500	–	4600	–
SYSVQTMETVPYQPFP [TBX4(428–443) peptide, unlabeled]	1000	–	–	–	–	–
{FITC}-YYSVNTFKEHHSTPTI [FITC-KIRREL3(637–652) peptide]	–	80	1400	–	1400	–
YYSVNTFKEHHSTPTI [KIRREL3(637–652) peptide, unlabeled]	90	–	–	–	–	–
TNGYYSVNTFKEHHSTPTI [KIRREL3(634–652) peptide, unlabeled, N-terminally extended]	120	–	–	–	–	–
FYDLWASDNPLDRPLV (also: FITC label, position not given here) [FITC-NOP53(192–207) peptide]	–	710	2400	17000	3500	–
{FITC}-THHKALQEIRNSLLPF [FITC-LATS1(73–88) peptide]	–	1000	1200	8500	1700	–
